Measurements published in patent US7276370 (DONALD DANFORTH PLANT SCIENCE CENTER, dated 2007).

Target: the molecule itself
Experiment: EMSA, E. coli protein extract with 32P-labeled BoxIIml DNA probe; homodimer inferred from the shifted band
Description: FIG. 5: Electrophoretic mobility shift assay (EMSA) of Rf2a and the 3Δ mutant of Rf2a. Oligonucleotides containing the BoxIIml sequences (Yin et al., 1997a) were used as ^32P-labeled probe or an unlabeled competitor in an EMSA with 500 ng of *E. coli* protein containing 3Δ protein or Rf2a. Unbound probe is located near the bottom of the gel. The band with the greatest mobility in lanes 1, 2, 4, and 5 indicated by x is presumed to result from binding with an uncharacterized protein that co-purifies with the target protein. Lane 1, protein prepared from *E. coli* without induction. Lane 2, reaction with extracts of *E. coli* that produce Rf2a. Lane 3, reaction with equimolar amounts of Rf2a and 3Δ plus 80× fold molar excess of unlabeled competitor probe relative to the labeled probe. Lane 4, reaction with equimolar amounts of Rf2a and 3Δ. Lane 5, reaction with 3Δ.
Electrophoretic mobility shift assays (EMSAs). EMSAs were carried out essentially as described by Yin and Beachy (7). 500 ng of *E. coli* protein extracts were incubated with 32_P labeled DNA probes comprising Box IIml that was constructed using annealed oligonucleotides (10). For competition EMSA, unlabeled oligonucleotides were added to the binding reactions at 80 fold molar excess relative to the labeled probe (see FIG. 5).

B1: Rf2a transcription factor (other)
chain: MNREKSPIPGDGGDGLPPQATRRAGPPAAAAAAEYDISRMPDFPTRNPGHRRAHSEILSLPEDLDLCAAGGGDGPSLSDENDEELFSMFLDVEKLNSTCGASSEAEAESSSAAAHGARPKHQHSLSMDESMSIKAEELVGASPGTEGMSSAEAKKAVSAVKLAELALVDPKRAKRIWANRQSAARSKERKMRYIAELERKVQTLQTEATTLSAQLALLQRDTSGLTTENSELKLRLQTMEQQVHLQDALNDTLKSEVQRLKVATGQMANGGGMMMNFGGMPHQFGGNQQMFQNNQAMQSMLAAHQLQQLQLHPQAQQQQVLHPQHQQQQPLHPLQAQQLQQAARDLKMKSPMGGQSQWGDGKSGSSGN
notes: The 5' primer encodes an extra Met-Glu-Lys before MNREKS; Crude E. coli protein extract was used in the EMSA; also called rice transcription factor Rf2a
binding result: binds
